Data taken from publication PMC7112428 (International Journal of Biological Macromolecules, 2018).

Target: the molecule itself
Assay: SEC

B1: recombinant porcine aminopeptidase N ectodomain (residues 63-963) (domain or fragment, UniProt P15145 63-963, looked up)
chain: QSKPWNRYRLPTTLLPDSYNVTLRPYLTPNADGLYIFKGKSIVRLLCQEPTDVIIIHSKKLNYTTQGHMVVLRGVGDSQVPEIDRTELVELTEYLVVHLKGSLQPGHMYEMESEFQGELADDLAGFYRSEYMEGNVKKVLATTQMQSTDARKSFPCFDEPAMKATFNITLIHPNNLTALSNMPPKGSSTPLAEDPNWSVTEFETTPVMSTYLLAYIVSEFQSVNETAQNGVLIRIWARPNAIAEGHGMYALNVTGPILNFFANHYNTSYPLPKSDQIALPDFNAGAMENWGLVTYRENALLFDPQSSSISNKERVVTVIAHELAHQWFGNLVTLAWWNDLWLNEGFASYVEYLGADHAEPTWNLKDLIVPGDVYRVMAVDALASSHPLTTPAEEVNTPAQISEMFDSISYSKGASVIRMLSNFLTEDLFKEGLASYLHAFAYQNTTYLDLWEHLQKAVDAQTSIRLPDTVRAIMDRWTLQMGFPVITVDTKTGNISQKHFLLDSESNVTRSSAFDYLWIVPISSIKNGVMQDHYWLRDVSQAQNDLFKTASDDWVLLNVNVTGYFQVNYDEDNWRMIQHQLQTNLSVIPVINRAQVIYDSFNLATAHMVPVTLALDNTLFLNGEKEYMPWQAALSSLSYFSLMFDRSEVYGPMKKYLRKQVEPLFQHFETLTKNWTERPENLMDQYSEINAISTACSNGLPQCENLAKTLFDQWMSDPENNPIHPNLRSTIYCNAIAQGGQDQWDFAWGQLQQAQLVNEADKLRSALACSNEVWLLNRYLGYTLNPDLIRKQDATSTINSIASNVIGQPLAWDFVQSNWKKLFQDYGGGSFSFSNLIQGVTRRFSSEFELQQLEQFKKNNMDVGFGSGTRALEQALEKTKANIKWVKENKEVVLNWFIEHS
For B1, the “stoichiometry N” value was 2.
